Holding throughout (format): functional, cell-based
Details in all cases: Oocyte

Substrate in series [1]: CC(C)C(=O)C(=O)O
The series can be described thus: (§1) TP_TRANSPORTER: change in intracellular pH(pHi)value in Xenopus laevis oocytes.

Substrate in series [2]: CC(=O)C(=O)O
Described as §1.

Substrate in series [3]: C[C@@H](O)C(=O)O
The series is described as §1.

Substrate in series [4]: CC(C)CC(=O)C(=O)O
The description is as §1.

What is called Km is the concentration of substrate that gives half-maximal velocity.

B1: Monocarboxylate transporter 1 (Rattus norvegicus), P53987 (protein)
chain: MPPAIGGPVGYTPPDGGWGWAVVVGAFISIGFSYAFPKSITVFFKEIEIIFSATTSEVSWISSIMLAVMYAGGPISSILVNKYGSRPVMIAGGCLSGCGLIAASFCNTVQELYFCIGVIGGLGLAFNLNPALTMIGKYFYKKRPLANGLAMAGSPVFLSTLAPLNQAFFGIFGWRGSFLILGGLLLNCCVAGSLMRPIGPQQGKVEKLKSKESLQEAGKSDANTDLIGGSPKGEKLSVFQTVNKFLDLSLFTHRGFLLYLSGNVVMFFGLFTPLVFLSNYGKSKHFSSEKSAFLLSILAFVDMVARPSMGLAANTRWIRPRVQYFFAASVVANGVCHLLAPLSTTYVGFCIYAGVFGFAFGWLSSVLFETLMDLVGPQRFSSAVGLVTIVECCPVLLGPPLLGRLNDMYGDYKYTYWACGVILIIAGLYLFIGMGINYRLVAKEQKAEEKKRDGKEDETSTDVDEKPKKTMKETQSPAPLQNSSGDPAEEESPV
Consider B1, for which the Km turned out to be 1250 µM in series [1], 1010 µM in series [2], 3500 µM in series [3] and 670 µM in series [4].

(Values after ChEMBL document CHEMBL2074082, “Characterization of the monocarboxylate transporter 1 expressed in Xenopus laevis oocytes by changes in cytosolic pH” (Biochem J, 1998).)
